B1: TPR t1 (parent)
chain: GACCAAUCUGCCCUCAGAGCUCGAGAACAUCUUCGGAUGCAGAGGAGGCAGGCUUCGGUGGCGCGAUAGCGCCAACGUCCUCAACCUCCAAUGCAUCCCACCACAUGAUGAUGCCUGAAGAGCCUUGGUUUUUUG

Variants of: B1
Experiment: polymerase ribozyme fitness, log enrichment relative to wild type (log ratio); higher = more active; in vitro selection for triplet polymerase activity
In short: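 Libraries of mutants in each subunit of a heterodimeric triplet polymerase ribozyme were generated by PCR and transcribed. In triplicate, each went through one in vitro selection round: annealing with biotinylated primer, partner subunit and triplets; frozen incubation at −7 °C; gel excision of extended constructs; streptavidin-bead capture; RT-PCR. Fitness, taken from Illumina sequencing of input and output libraries, is the logarithm of a genotype's enrichment over wild-type enrichment, averaged across replicates with inverse-variance weights. The logarithm is base 2, and genotypes needed ≥10 input reads and ≥1 read per output to be kept.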

Variant	polymerase ribozyme fitness (log ratio)
C12A C40A	-2.34
C12U C20G A43C G48A	-5.39
C11U G113U	-2.7
C12G C70U	-0.468
C12G C70G	-2.83
C12A C99U	-3.06
C12U A29U C56G U87G	-2.63
C12G A75U C94G	-1.33
C12G U14C C62U C85U C86U	-1.07
C12U A26G G45A A84U U132C	-3.75
C11U U87G G113U	-4.06
C12A U130C	-1.06
C12A C73A	1.15
C12U C13U A43G G61A U130G	-2.17
C12U C40U	-0.543
C12A G122A	-0.788
C12A G58A G61C C79U C82A A83C C114U	-5.31
C12A G61C	-2.46
C12U C72U A100C G113U G127A	-3.91
C12G A26U C34U G42U G44U C62G U96C U106A U109A C115G	-6.33
C12A A100C A121C	1.43
C12U A46G C56A A105U	-1.73
C12U C72U G128U	-1.55
C12A C64U U133G	-0.934

Variant	polymerase ribozyme fitness (log ratio)
C12A C15G C101U	-3.16
C12G G93A	-0.233
C12G G48C G135U	-1.51
C12A U87A C89G C94A G113A	-6.04
C12G U14C G45A A68G U106A	-4.06
C12A G57U C72U	-0.582
C12A G44A A46G G48U	-3.1
C12G A66C G93A C104U	-1.71
C12U C13U A18U C20G	-4.78
C12A G117U	-1.72
C12G U14C U59G C73G	-2.57
C12U C28U C49U C82A	-3.01
C12A G69A A100C A121C	-3.75
C12A U112C	0.835
C12G A41C	-0.0245
C12A G63U C70G C89A A90U A100U A121G	-1.48
C11U G77U U112C	1.4
C12U C34G C115G	-6.11
C12U A103U	-4.81
C12A G51U G71U U133C	-4.34
C12A G128C	-2.18
C12A G128U	-2.12
C12A C15U G52U G63A C86U G117C	-5.35
C12U C62U C80G U109G C114A	-6.17

Variant	polymerase ribozyme fitness (log ratio)
C12G C28U C72U C123U U125G	-0.502
C11U G71U C123A	1.29
C12U A18U A108U C114U A121C U129C	-6.88
C12U A18C G52U C79A G127C	-2.61
C11U U55A C80A C86G C124G	-4.52
C12A C15A A43G A50U G61U	-6.06
C12A A26U A41C C82A A95G C101A G120A G127A	-5.86
C11U G71A	-1.53
C12G G17A C62U C101U	-5.49
C12A C49U G69U U109A U116A C123G	-5.67
C12U A18G A41U G47C U109G C124G	-2.39
C12A C86A	-0.926
C12A G48A U55C G57U U59G C85U	-3.61
C12G C70G C85A	-3.7
C12A A26U G36A G48C C72U	-4.02
C12A C53U U78A U81G	-2.32
C12G G45C U55C C72U C85A U96A	-4.29
C12G C40G G63A	-1.01
C12U C15G G39A C56A G120A	0.312
C12G A27C	-2.38
C12G G39U G61A U106C G127C	-2.63
C12U A46C C53G C72U C73G A84C A95C	-5.01
C12A A46U C114U	-3.89
C12A G71U G117C U126C	-6.35

Variant	polymerase ribozyme fitness (log ratio)
C12A C70G C89A G110A U129A	-6.66
C12G G19A G93U U106A A111G C115A	-6.62
C12U A16C U59A U92C C124A	0.146
C12A A37G U132A	-1.37
C12A G120U	1.57
C12G G52U	-0.405
C12G C76U	-0.0382
C12A C20A G63A U87A G122U	-4.81
C12U A83U	0.364
C12G A43U	-0.979
C12A C20A G63C G113U C115U U131A	-3.61
C12U C15A U125G U133A	-1.18
C12G C56U A100C G117U	-3.6
C12U C56G	-0.12
C12U C56A	-0.454
C11U U129A	-2.36
C12G G58A G61A C62U C124G	0.824
C12G C94G	-1.02
C12U C73U U81G C82G C123A	0.809
C12G G44A C73G C82U	-0.977
C12U A29G U92C C94A	-3.95
C12U C53U C56U	-0.154
C12A A68G A84C	-4.19
C12U C62G U126A	-2.76

Variant	polymerase ribozyme fitness (log ratio)
C12A A41C C72U U92G A111G	-1.91
C12U C72U U96A C115U	-1.92
C12A U92A	-3.47
C12G U33G C76A A100C C123G	-5.88
C12A C72A C99A G120U G128U	-7.62
C12A C40U U87G	-1.56
C12G C88G	-0.624
C12G A46G G48A C79A	-2.27
C12A C13A U55A G63U U131A	-2.53
C12A A46U C72G C114U	-4.57
C12U C53G	-0.45
C12G U96A	-0.352
C12G A46U C102A	-2.85
C12G C79A	-1.01
C11U U21A A27G C70G A105G	-5.92
C12A G60C U106G	-2.28
C11U U21A A27G A105G	-4.61
C12U A46G C62A U67C U112A U129G	-4.48
C12U C73A C97G C104U	-2.89
C12G G93U U112A	0.281
C12G G51A	-2.1
C12A G113A	-2.14
C12G C40U C97U	-1.01
C12U C28A C40U C73U	-4.89

Variant	polymerase ribozyme fitness (log ratio)
C12A U54A C80G	-4.17
C11U G69C	-1.87
C11U G69A	-2.2
C12G A26C A27C G36U C97A C101U U109A	-7.51
C12A A16U C56A	-3.74
C12A C40G C104U G128U	-3.15
C12A C15A C70A C72A G110U	-6.17
C12A C79A A111G	-2.24
C12G G61U G120U	2.2
C11U U54A	-0.542
C12U C15U A46C G47A G69C A100G C101U G113U C123G	-7.1
C12A A26G A121C	-1.17
C12G C15U G61A	-0.982
C12U A50U U59G A119U	-0.98
C12U A41U	-0.786
C12A C62U G128U	-3.03
C12A G45U C56U G93A	-2.57
C12G C70U U106A	0.277
C12U C79G C89A A121C	-3.82
C11U U78A C97A	-5.69
C12A C53U C73A	-0.585
C12G G65C U67G A95G A108U A119U C123U	-5.89
C11U U112C	1.46
C11U U112A	1.19

Variant	polymerase ribozyme fitness (log ratio)
C12U A46U	-0.688
C12A U133A	-0.907
C12A C22A C40U G58C C86A U112G	-5.73
C12A G69C	-2.39
C12U C72G U112C	1.25
C12G C124G	0.742
C12A G110A	-1.57
C11U G93A	-0.986
C12A C20G A83G C85U A95G	-5.21
C12G A46C G60U U109C	-6.49
C11U G128A	-2.45
C12A G17C G48C	-6.47
C12A C62A	-1.05
C12A A46U C49U A95G C99U A111G U116A	-6.56
C12G C72G U87C	0.909
C12A G17A A111U U116C	-6.09
C12A A37C	-1.93
C12G A27C C104U G113U G120A G122A U130A	-6.9
C12G C40G G45A C56U	-1.34
C12A G57A G69C U106C	-2.99
C12U A16U C20U G71C C114A G127U	-3.54
C12A C89U C101A A111U	-5.17
C11U U14C U38G	-4.03
